Measured values: the nanobody polyreactivity screen of Harvey et al. (2022)

Test: yeast display, Sf9 membrane polyspecificity reagent, FACS + sequencing; frameworks hold sequencing errors
How it was run: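 A nanobody's polyreactivity label depends on the gate it was sorted from. Yeast display cells were stained with 10% biotinylated, detergent-solubilized Sf9 membrane reagent for 1 hour at 4 °C, enriched on streptavidin microbeads and sorted by FACS. The low and high (top ~1%) gates were set on anti-HA fluorescence for expression and streptavidin fluorescence for reagent binding.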

Row | Sequence | polyreactivity (PSR sort gate)
1 | QVQLVESGGGLVQAGGSLRLSCAAYGSIFRLYAIGWSRQAPGKDRELVAAISSVGRTYYAYSVKGRFTISRDNAKNTVYLQMNSLKPEDSAVYYCAARPYKFARYDYWGQGTQVTVSS | high polyreactivity
2 | QVQLVESGGGLVQAGGSLRLSCAAYGSIFRSYAMGWYRQAPGKERELVAAISSRYGSTYYADSVKGRFTISRDNAKNTVYLQMNSLKPEDTAVYYCGSQHRHSYGYWGQGTQVTVSS | high polyreactivity
3 | QVQLVESGGGLVQAGGSLRLSCAAYGSIFSGYTMGCYRQAPGKERELVAAITQRGTRTYYADSVKGRFTISRDNAKNTVYLQMNSLKPEDTAVYYCAAVRSYYSNRGYDYWGQGTQVTVSS | high polyreactivity
4 | QVQLVESGGGLVQAGGSLRLSCAAYGSIFTRNAMGWYRQAPGKERELVATITSNDGSTNYADSVKGRFTISRDNAKNTVYLQMISLKPEDTAVYYCNRSYGVYSEFDYWGQGTQVTVSS | low polyreactivity
5 | QVQLVESGGGLVQAGGSLRLSCAAYGSILARYAMGWYRQAPGKERELVAAISYNGGSTYYADSVKGRFTISRDNAKNTVYLQMNSLKPEDTAVYYCAKAYDTTLTYNFWGQGTQVTVSS | low polyreactivity
6 | QVQLVESGGGLVQAGGSLRLSCAAYGSNLTWNDMGWYRQAPGKERELVAAIDVNDGSTYYADSVKGRFTISRDNAKNTVYLQMNRLKPEDTAVYYCAEPTDYTWLDSTLADDYWGQGTQVTVSS | low polyreactivity
7 | QVQLVESGGGLVQAGGSLRLSCAAYGSTFHYYSMGWYRQAPGKERELVAAISSSGVSTYYADSVKGRFTISRDYAKNTVYLQMNSLKPEDTAVYYCNRASVFHYRWYYYWGLGTQVTVSS | high polyreactivity
8 | QVQLVESGGGLVQAGGSLRLSCAAYGSTFYAYAMGWYRQAPGKERELVAAIDSGGSTYYADSVKGRFTISRDNAKNTVYLQMNSLKPEDTAVYYCAVRHRYTRAYWGRDYWGQGTQVTVSS | low polyreactivity
9 | QVQLVESGGGLVQAGGSLRLSCAAYGSTFYHKAMGWYRQAPGKERELVARITRGGSTDYADSVKGRFTISRDNAKNTVYLQMNSRKPEDTAVYYCAAAIGHFERFYWGQGTQVTVSS | low polyreactivity
10 | QVQLVESGGGLVQAGGSLRLSCAAYGSTFYVYAMGWYRQAPGKESELVAAITSAGSTNYADSVKGRFTISRDNAKYTVYLQMNSLKPEDTAVYYCAVYFDTFYGHMYYWGQCTQVTVSS | low polyreactivity
11 | QVQLVESGGGLVQAGGSLRLSCAAYSYVMGGYRQAPGKERELVAAISQSGGSTYYADSVKGRFTISRDNAKNTVYLQMNTLKPEDTAVYYCAASYQVRYDYWGQGTQVTVSS | high polyreactivity
12 | QVQLVESGGGLVQAGGSLRLSCAAYSYVMGWYRQAPGKERELVAAISQSGGSTYYADSVKGRFTISRDNAKNTVYLQMNSLKPEDTAVYYCAARREPYQYNQYYSWGQGTQVTVSS | high polyreactivity
13 | QVQLVESGGGLVQAGGSLRLSCACSGSTFRWYTMGWYRQAPGKECELVAAISISGTSTYYADSVNGRFTISRDNAKNTVYLQMNSLTPEDTAVYYCAADPPSRWGDYWGQGTQVTVSS | high polyreactivity
14 | QVQLVESGGGLVQAGGSLRLSCADSGFIFSHNVMGWYRQAPGKERELVAAISASGGSTYYADSVKGRFTISRDNAKNTVYLQMNSLKPEDTAVYYCAKVTWGTVWYRSPSEYDYWGQGTQVTVSS | low polyreactivity
15 | QVQLVESGGGLVQAGGSLRLSCADSGFIFTPYTMGWYRQAPGKERELVAAITDGSSTYYADSVKGRFTISRDNAKYTVYLQINSLKPEDTAVYYCNADGKPPYISWLYDYWGQGTQVTVSS | low polyreactivity
16 | QVQLVESGGGLVQAGGSLRLSCADSGFISDWYAMGWYRQAPGKERELVATIDWIGGSTYADSVKGRFTISRDNAKNTVYLQMNSMKPEDTAVYYCNAYAFDSVREEDYWGQGTQVTVSS | low polyreactivity
17 | QVQLVESGGGLVQAGGSLRLSCADSGFTFSWYTMGWYRQAPGKERELVAAITVSGGSTYYADSVKGRFTISRDYAKNTVYLQMNSLKPEDTAVYYCNAQDPFTYYSSSPTYDYWGQGTQVTVSS | low polyreactivity
18 | QVQLVESGGGLVQAGGSLRLSCADSGFTFYTYTMGWYRPAPGKERELVAVISRSGGSTYYADSVKGRFTISRDNAKNTVYLQMNSVKPEDTAVYYCNAGYWRFIDSYDYWGQGTQVTVSS | high polyreactivity
19 | QVQLVESGGGLVQAGGSLRLSCADSGGTFGYYVMGWNRQAPGKERELVAAITSGGSTKYADSVKGRFTISRDNAKNTVYLQMNSLKPEDTAVYYCAADYPYYPFSSIYDYWGQGTQVTVSS | low polyreactivity
20 | QVQLVESGGGLVQAGGSLRLSCADSGIIFAYYAMGWYRQAPGKERELVAAITGGGVRTYYADSVKGRFTISRDNAKNTVYLQMNSLKPEDTAVYDCIATGSTASGRVNYWGQGTQVTVSS | high polyreactivity
21 | QVQLVESGGGLVQAGGSLRLSCADSGIIFAYYDMGWYRQAPGKERELVASISSTGGSTYYADSVKGRFTISSDNAKNTVYLQMNSLKPEDTAVYYCAVDGLPPKDALHLYYYWGQGTQVTVSS | low polyreactivity
22 | QVQLVESGGGLVQAGGSLRLSCADSGIIFRYYSMGWYRQAPGKESEFVAAITGSSGSTYADSVKGRFTISRDNAKNTVYLQMNSLKPEDTAVYYCNADSYSIWVYGEYDYWGLGTQVTVSS | high polyreactivity

Row | Sequence | polyreactivity (PSR sort gate)
23 | QVQLVESGGGLVQAGGSLRLSCADSGIIFWRYAMGWYRQAPGKERELVATITSGGSTDYADSVKGRFTISRDNAKNTVYLQMNSLKPEDTAVYYCAALGYATGYWRYYYWGQGTQVTVSS | low polyreactivity
24 | QVQLVESGGGLVQAGGSLRLSCADSGITFAPYAMGWSRQAPGKERELVATITWSGGSTYYADSVKGRFTISRDNAKNTVYLQMNSLKPEDTAVYYCAAYNDTVPSAAHIYESWGQGTQVTVSS | low polyreactivity
25 | QVQLVESGGGLVQAGGSLRLSCADSGITFGVYAMGWYRQAPGKERELVAAISRRGASTYYADSVKGRFTISRDNAKNTVYLQMNSLKPEDTAVYYCAAYLARRQYDYWGQGTQVTVSS | high polyreactivity
26 | QVQLVESGGGLVQAGGSLRLSCADSGITFSDYAMGWYRQAPGKERELVAAISARGGSTYYADSVKGRFTISRDNAKNTVYLQMNSLKPEDTAVYYCAADKRTPYYSRAGMDYWGQGTQVTVSS | low polyreactivity
27 | QVQLVESGGGLVQAGGSLRLSCADSGLIFGRNAMGWYRQAPGKERELVAAITSGGSTYYADSVKGRFTISRDNAKNTVYLQRNSLKPEDTAVYYCAADVVDLYLLDYWGQGTQVTVSS | low polyreactivity
28 | QVQLVESGGGLVQAGGSLRLSCADSGLIFKYYAMGWYRQAPGKERELVAVITSSGGSTYYADSVKGRFTISRDNAKNTVYLQMNSLKPEDTAVYYCAARRVRWPYDYWGQGTQVTVSS | high polyreactivity
29 | QVQLVESGGGLVQAGGSLRLSCADSGLIFWAYAMGWYRQEPGTERELVAAINWRGGSTYYADSVKGRFTISRDTAKNTVYLQMNSLKPEDTAVYYCAADSYYDEYDYWGQGTQVTVSS | low polyreactivity
30 | QVQLVESGGGLVQAGGSLRLSCADSGLTFGSNGMGWYRQAPGKERELVAAISRGGSTSYAVSVKGRFTISRDNAKNTVYLQMNSLKPEDTAVYYCAARSYRYSYRYRAFDYWGQGSQVTVSS | high polyreactivity
31 | QVQLVESGGGLVQAGGSLRLSCADSGLTFWAYAMGWYRQAPGKARELVAGISSGVSTYYADSVKGRFTISRDNAKNTFYLQMNSLKPEDTEVYYCAAYVYTWYYYDVGYWGQGTQVTVSS | high polyreactivity
32 | QVQLVESGGGLVQAGGSLRLSCADSGQNAMGWYRQAPGKERELVAAISRGGDSTYYADSVKGRFTISRDNAKNSVYLQMNSLKPEDTAVYYCAASYYRRYGYNYWGQGTQVTVSS | high polyreactivity
33 | QVQLVESGGGLVQAGGSLRLSCADSGRHFSFNMGWYRQAPGKERELVAAISRRGGSTYYADSVKGRFTISRDNAKNTVYLQMNSLKPEYTAVYYCAVIPRQTYSGGGYDYWGQGTQVTVSS | high polyreactivity
34 | QVQLVESGGGLVQAGGSLRLSCADSGRIFDFNAMGWYRQAPGKERELVASIDWSGGNTYYADSVKGRFTISRDNAKNTVYVQMNSLKPEDTAVYYCNRDFWGVWEYDYWGQGTQVTVSS | low polyreactivity
35 | QVQLVESGGGLVQAGGSLRLSCADSGRIFFKYAMGWYRQAPGKERELVASISRRGGSTTYADSVKGRFTISRDNAKNTVYLQMNSLKPEDTAVYYCNTVSWWGRNYQDEYYYWGQGTQVTVSS | high polyreactivity
36 | QVQLVESGGGLVQAGGSLRLSCADSGRIFGPYAMGWYRQAPGKERELVAAISGGGRTDYADSVKGRFTISRDNAKNTVYLQMNSLKPEDTAVYYCNADYTYWNGWFATRDYWGQGTQVTVSS | low polyreactivity
37 | QVQLVESGGGLVQAGGSLRLSCADSGRIFRGNGMGWSRQAPGKEREFVDAISRGDGNTYYADSVKGRFTISRDNAKNTVYLQMNSLKPEDTAVYSCAAGGYGYYDFPQYNYWGQGTQVTVSS | low polyreactivity
38 | QVQLVESGGGLVQAGGSLRLSCADSGRTFGPYAMGWYRQAPGKERELVAAITSSGGSTYYADSVKGRFTISRDNAKNTVSLQMNSLKPEDTAVYYCNKLYWRQSQDYDYWGQGTQVTVSS | low polyreactivity
39 | QVQLVESGGGLVQAGGSLRLSCADSGRTIYRNGMGWYRKAPGKEREFVAAINYRGGSTNYADSVKWRFTISRDKAKNTVYLQMNSLKPEDTAVYYCATRIFRAALRFDYWGQGTQVTVSS | high polyreactivity
40 | QVQLVESGGGLVQAGGSLRLSCADSGSIFDGNAMGWYRQAPGKERALVAAISRRGGSTYYADSVKGRFTISRDKAKNTVYLQMNSLKPEDTAVYYCNAYLSYFDGNYWGQGTQVTVSS | high polyreactivity
41 | QVQLVESGGGLVQAGGSLRLSCADSGSIFDVNVMGWYRQAPAKERELVASINISGASTYYADSVKGRLTISRDNAKNTVSLQMNSLKPEDTAVYYCAGTYGVPSFRYGYWGQGTQVTVSS | low polyreactivity
42 | QVQLVESGGGLVQAGGSLRLSCADSGSIFPFYAMGWYRQAPGKERELVASISSGGSTNYADSVKGRFTISRDNAKKTVYLQMNSLKPEDTAVYYCNAVGTFVRYGTDGRDGVNYDYWGQGTQVTVSS | low polyreactivity
43 | QVQLVESGGGLVQAGGSLRLSCADSGSIFQYYVRGCYRQAPGKERELVAAIRRSGTTYYADSVKGRFTISRDNAKNTVYLQMNSLKTEDTAVDYCNKVRCQEPSNYDYWVQGTQVTVSS | low polyreactivity
